Assay results: US20140105889A1 (published 2014)
Substitutions are numbered along the chain they refer to. Numbers in names are those of the source.

T1: human FcγRIIa type H (human, UniProt P12318 36-217)
T1 construct: also called FcgRIIaH; FcγRIIa(H)
T1 sequence: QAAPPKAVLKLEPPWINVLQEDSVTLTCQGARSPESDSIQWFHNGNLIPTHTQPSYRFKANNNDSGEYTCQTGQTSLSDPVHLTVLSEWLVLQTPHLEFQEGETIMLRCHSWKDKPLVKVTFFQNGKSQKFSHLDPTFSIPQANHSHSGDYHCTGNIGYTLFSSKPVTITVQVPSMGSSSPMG

T2: human FcγRIIa type R (human, UniProt P12318 36-217)
T2 construct: also called FcgRIIaR; FcγRIIa(R)
T2 chain: T1 sequence with H133R

T3: human FcγRIIb (human, UniProt P31994 43-217)
T3 construct: also called FcgRIIb; FcγIIB
T3 sequence: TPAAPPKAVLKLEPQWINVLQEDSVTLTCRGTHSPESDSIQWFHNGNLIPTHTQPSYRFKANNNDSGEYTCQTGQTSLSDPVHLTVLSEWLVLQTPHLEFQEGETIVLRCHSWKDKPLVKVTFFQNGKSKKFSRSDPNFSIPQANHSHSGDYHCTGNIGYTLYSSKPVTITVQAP

B1: IL6R-2B253/IL6R-L (antibody, human IgG1)
heavy: QVQLQESGPGLVKPSETLSLTCAVSGHSISHDHAWSWVRQPPGEGLEWIGFISYSGITNYNPSLQGRVTISRDNSKNTLYLQMNSLRAEDTAVYYCARSLARTTAMDYWGEGTLVTVSSASTKGPSVFPLAPSSKSTSGGTAALGCLVKDYFPEPVTVSWNSGALTSGVHTFPAVLQSSGLYSLSSVVTVPSSSLGTQTYICNVNHKPSNTKVDKKVEPKSCDKTHTCPPCPAPDLLGGDSVFLFPPKPKDTLMISRTPEVTCVVVDVSHEDPEVKFNWYVDGVEVHNAKTKPREEQYNSTYRVVSVLTVLHQDWLNGKEYKCKMSNKALPAPIEKTISKAKGQPREPQVYTLPPSRDELTKNQVSLTCLVKGFYPSDIAVEWESNGQPENNYKTTPPVLDSDGSFFLYSKLTVDKSRWQQGNVFSCSVMHEALHNHYTQESLSLSP
light: DIQMTQSPSSLSASVGDRVTITCRASQDISSYLNWYQQKPGKAPKLLIYYTSRLHSGVPSRFSGSGSGTDFTFTISSLQPEDIATYYCQQGNTLPYTFGQGTKVEIK
B2: IL6R-BP089/IL6R-L (antibody, human IgG1)
heavy: B1 heavy with D235E, L236Y, M325V, K328A, A332K
light: B1 light
B3: IL6R-BP177/IL6R-L (antibody, human IgG1)
heavy: B1 heavy with L236Y, G239D, P273G, M325V, K328D, A332K
light: B1 light
B4: IL6R-BP132/IL6R-L (antibody, human IgG1)
heavy: B1 heavy with M325V, K328A, A332K
light: B1 light
B5: IL6R-BP085/IL6R-L (antibody, human IgG1)
heavy: B1 heavy with D235E, G239D, M325V, A332K
light: B1 light
B6: IL6R-BP143/IL6R-L (antibody, human IgG1)
heavy: B1 heavy with D235E, L236Y, M325V, K328A
light: B1 light
B7: IL6R-BP148/IL6R-L (antibody, human IgG1)
heavy: B1 heavy with L236Y, G239D, M325V, K328A, A332K
light: B1 light
B8: IL6R-BP149/IL6R-L (antibody, human IgG1)
heavy: B1 heavy with L236Y, G239D, Y298D, M325V, K328A, A332K
light: B1 light
B9: IL6R-BP133/IL6R-L (antibody, human IgG1)
heavy: B1 heavy with L236Y, M325V, A332K
light: B1 light
B10: IL6R-BP150/IL6R-L (antibody, human IgG1)
heavy: B1 heavy with D235E, L236Y, G239D, M325V, K328A, A332R
light: B1 light
B11: IL6R-BP087/IL6R-L (antibody, human IgG1)
heavy: B1 heavy with D235E, L236Y, M325V, A332K
light: B1 light
B12: IL6R-BF648/IL6R-L (antibody, human IgG1)
heavy: not shown
light: B1 light
B13: IL6R-BP086/IL6R-L (antibody, human IgG1)
heavy: B1 heavy with D235E, M325V, K328A, A332K
light: B1 light
B14: IL6R-BP144/IL6R-L (antibody, human IgG1)
heavy: B1 heavy with D235E, G239D, M325V, K328A
light: B1 light
B15: IL6R-2B261/IL6R-L (antibody, human IgG1)
heavy: B1 heavy with Y298D, M325V
light: B1 light
B16: IL6R-BP083/IL6R-L (antibody, human IgG1)
heavy: B1 heavy with D235E, Y298D, M325V, A332K
light: B1 light
notes: The variants were built on IL6R-BF648 (P238D), so it is read as P238D
B17: IL6R-BP084/IL6R-L (antibody, human IgG1)
heavy: B1 heavy with D235E, A332K
light: B1 light
B18: IL6R-BP129/IL6R-L (antibody, human IgG1)
heavy: B1 heavy with Y298D, M325V, A332K
light: B1 light
B19: IL6R-BP088/IL6R-L (antibody, human IgG1)
heavy: B1 heavy with D235E, G239D, M325V, K328A, A332K
light: B1 light
B20: IL6R-B3/IL6R-L (antibody, human IgG1)
heavy: not shown
light: B1 light
notes: Parent polypeptide
B21: IL6R-BP145/IL6R-L (antibody, human IgG1)
heavy: B1 heavy with D235E, L236Y, G239D, M325V
light: B1 light

These binders were tested against T1, human FcγRIIa type H (assay: SPR (Biacore), FcγR over captured antibody; binding amount / that of IL6R-BF648/IL6R-L x100).
Method: (§1) According to the following method, relative binding activities were calculated for the results of analyzing interactions with the respective FcγRs.

relative binding activity	Binder
207 % of IL6R-BF648/IL6R-L	B1
186 % of IL6R-BF648/IL6R-L	B2
409 % of IL6R-BF648/IL6R-L	B3
130 % of IL6R-BF648/IL6R-L	B4
158 % of IL6R-BF648/IL6R-L	B5
143 % of IL6R-BF648/IL6R-L	B6
462 % of IL6R-BF648/IL6R-L	B7
401 % of IL6R-BF648/IL6R-L	B8
151 % of IL6R-BF648/IL6R-L	B9
770 % of IL6R-BF648/IL6R-L	B10
179 % of IL6R-BF648/IL6R-L	B11
100 % of IL6R-BF648/IL6R-L	B12
116 % of IL6R-BF648/IL6R-L	B13
108 % of IL6R-BF648/IL6R-L	B14
91 % of IL6R-BF648/IL6R-L	B15
91 % of IL6R-BF648/IL6R-L	B16
162 % of IL6R-BF648/IL6R-L	B17
98 % of IL6R-BF648/IL6R-L	B18
166 % of IL6R-BF648/IL6R-L	B19
1600 % of IL6R-BF648/IL6R-L	B20
224 % of IL6R-BF648/IL6R-L	B21

Target: T2, human FcγRIIa type R
Assay: as above
Method: as §1

relative binding activity	Binder
288 % of IL6R-BF648/IL6R-L	B1
222 % of IL6R-BF648/IL6R-L	B2
691 % of IL6R-BF648/IL6R-L	B3
191 % of IL6R-BF648/IL6R-L	B4
279 % of IL6R-BF648/IL6R-L	B5
238 % of IL6R-BF648/IL6R-L	B6
603 % of IL6R-BF648/IL6R-L	B7
539 % of IL6R-BF648/IL6R-L	B8
174 % of IL6R-BF648/IL6R-L	B9
757 % of IL6R-BF648/IL6R-L	B10
163 % of IL6R-BF648/IL6R-L	B11
100 % of IL6R-BF648/IL6R-L	B12
155 % of IL6R-BF648/IL6R-L	B13
204 % of IL6R-BF648/IL6R-L	B14
94 % of IL6R-BF648/IL6R-L	B15
87 % of IL6R-BF648/IL6R-L	B16
203 % of IL6R-BF648/IL6R-L	B17
111 % of IL6R-BF648/IL6R-L	B18
377 % of IL6R-BF648/IL6R-L	B19
625 % of IL6R-BF648/IL6R-L	B20
350 % of IL6R-BF648/IL6R-L	B21

These binders were tested against T4, human FcγRIIIa type V (human, UniProt P08637 17-208, limits assumed) in the same assay as above.
T4 construct: Allotype V158 was used; also called FcgRIIIaV; FcγRIIIa(V)
T4 sequence (P08637 other isoform, or with tags, fused parts or gaps limits assumed): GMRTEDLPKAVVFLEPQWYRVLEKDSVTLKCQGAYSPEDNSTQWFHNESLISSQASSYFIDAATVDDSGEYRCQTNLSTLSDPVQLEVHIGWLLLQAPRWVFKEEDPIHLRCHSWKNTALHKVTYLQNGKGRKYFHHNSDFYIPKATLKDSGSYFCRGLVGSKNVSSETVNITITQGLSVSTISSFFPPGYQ
Method: as §1

relative binding activity	Binder
126 % of IL6R-BF648/IL6R-L	B1
136 % of IL6R-BF648/IL6R-L	B2
186 % of IL6R-BF648/IL6R-L	B3
120 % of IL6R-BF648/IL6R-L	B4
104 % of IL6R-BF648/IL6R-L	B5
114 % of IL6R-BF648/IL6R-L	B6
227 % of IL6R-BF648/IL6R-L	B7
186 % of IL6R-BF648/IL6R-L	B8
114 % of IL6R-BF648/IL6R-L	B9
204 % of IL6R-BF648/IL6R-L	B10
158 % of IL6R-BF648/IL6R-L	B11
100 % of IL6R-BF648/IL6R-L	B12
123 % of IL6R-BF648/IL6R-L	B13
128 % of IL6R-BF648/IL6R-L	B14
87 % of IL6R-BF648/IL6R-L	B15
107 % of IL6R-BF648/IL6R-L	B16
106 % of IL6R-BF648/IL6R-L	B17
95 % of IL6R-BF648/IL6R-L	B18
122 % of IL6R-BF648/IL6R-L	B19
3260 % of IL6R-BF648/IL6R-L	B20
153 % of IL6R-BF648/IL6R-L	B21

What follows are binders tested against T5, human FcγRIa (human, UniProt P12314 16-292, limits assumed) in the same assay as above.
T5 construct: also called FcgRIa; CD64
T5 sequence (P12314 16-292 limits assumed): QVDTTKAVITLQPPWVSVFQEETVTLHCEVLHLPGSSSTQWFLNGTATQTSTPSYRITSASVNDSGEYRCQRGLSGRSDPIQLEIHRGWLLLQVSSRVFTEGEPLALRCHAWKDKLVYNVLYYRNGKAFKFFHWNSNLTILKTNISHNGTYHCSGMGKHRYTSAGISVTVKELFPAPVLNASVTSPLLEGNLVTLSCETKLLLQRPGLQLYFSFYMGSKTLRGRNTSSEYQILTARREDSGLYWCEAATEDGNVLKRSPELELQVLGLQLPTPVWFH
Method: as §1

relative binding activity	Binder
155 % of IL6R-BF648/IL6R-L	B1
43 % of IL6R-BF648/IL6R-L	B2
57 % of IL6R-BF648/IL6R-L	B3
91 % of IL6R-BF648/IL6R-L	B4
19 % of IL6R-BF648/IL6R-L	B5
86 % of IL6R-BF648/IL6R-L	B6
33 % of IL6R-BF648/IL6R-L	B7
29 % of IL6R-BF648/IL6R-L	B8
41 % of IL6R-BF648/IL6R-L	B9
30 % of IL6R-BF648/IL6R-L	B10
33 % of IL6R-BF648/IL6R-L	B11
100 % of IL6R-BF648/IL6R-L	B12
72 % of IL6R-BF648/IL6R-L	B13
64 % of IL6R-BF648/IL6R-L	B14
100 % of IL6R-BF648/IL6R-L	B15
50 % of IL6R-BF648/IL6R-L	B16
109 % of IL6R-BF648/IL6R-L	B17
68 % of IL6R-BF648/IL6R-L	B18
25 % of IL6R-BF648/IL6R-L	B19
145 % of IL6R-BF648/IL6R-L	B20
41 % of IL6R-BF648/IL6R-L	B21

These binders were tested against T3, human FcγRIIb in the same assay as above.
Method: as §1

relative binding activity	Binder
156 % of IL6R-BF648/IL6R-L	B1
147 % of IL6R-BF648/IL6R-L	B2
177 % of IL6R-BF648/IL6R-L	B3
150 % of IL6R-BF648/IL6R-L	B4
152 % of IL6R-BF648/IL6R-L	B5
133 % of IL6R-BF648/IL6R-L	B6
176 % of IL6R-BF648/IL6R-L	B7
173 % of IL6R-BF648/IL6R-L	B8
137 % of IL6R-BF648/IL6R-L	B9
183 % of IL6R-BF648/IL6R-L	B10
137 % of IL6R-BF648/IL6R-L	B11
100 % of IL6R-BF648/IL6R-L	B12
137 % of IL6R-BF648/IL6R-L	B13
121 % of IL6R-BF648/IL6R-L	B14
115 % of IL6R-BF648/IL6R-L	B15
122 % of IL6R-BF648/IL6R-L	B16
141 % of IL6R-BF648/IL6R-L	B17
138 % of IL6R-BF648/IL6R-L	B18
161 % of IL6R-BF648/IL6R-L	B19
58 % of IL6R-BF648/IL6R-L	B20
152 % of IL6R-BF648/IL6R-L	B21
